B1: 20A3-H2L2 (antibody, human IgG1, kappa)
heavy: EVQLVESGGGLVQPGGSLRLSCAASGFTINNYYMNWVRQAPGKGLEWVSIIYGSDNTYYASWAKGRFTISKDNSKNTVYLQMNSLRAEDTAVYYCVRNLDYSSAYFHIWGQGTLVTVSSASTKGPSVFPLAPSSKSTSGGTAALGCLVKDYFPEPVTVSWNSGALTSGVHTFPAVLQSSGLYSLSSVVTVPSSSLGTQTYICNVNHKPSNTKVDKRVEPKSCDKTHTCPPCPAPEFEGGPSVFLFPPKPKDTLMISRTPEVTCVVVDVSHEDPEVKFNWYVDGVEVHNAKTKPREEQYNSTYRVVSVLTVLHQDWLNGKEYKCKVSNKALPASIEKTISKAKGQPREPQVYTLPPSREEMTKNQVSLTCLVKGFYPSDIAVEWESNGQPENNYKTTPPVLDSDGSFFLYSKLTVDKSRWQQGNVFSCSVMHEALHNHYTQKSLSLSPGK
light: DIQLTQSPSSLSASVGDRVTITCQASQSVYNNNRLAWYQQKPGKPPKLLIYEASKLASGVPSRFSGSGSGTDFTLTISSLQPEDVATYYCQGYYSGFIYPFGGGTKVEIKRTVAAPSVFIFPPSDEQLKSGTASVVCLLNNFYPREAKVQWKVDNALQSGNSQESVTEQDSKDSTYSLSSTLTLSKADYEKHKVYACEVTHQGLSSPVTKSFNRGEC
B2: anti-BTN3A1 rabbit-derived monoclonal antibody r20A3 (antibody, V domains shown)
VH: QSVEESGGRLVTPGTPLTLTCTASGFTINNYYMNWVRQAPGKGLEWIGIIYGSDNTYYASWAKGRFTISKTSTTVDLIMTSPTTEDTATYFCVRNLDYSSAYFHIWGPGTLVTVSS
VL: QVLTQTPSPVSAAVGGTVSISCQASQSVYNNNRLAWYQQKPGQPPNLLIYEASKLASGVPSRFKGSGSGTQFTLIISEVQCEDAATYYCQGYYSGFIYPFGGGTEVVVK
B3: anti-BTN3A1 rabbit-derived monoclonal antibody r17G4 (antibody, V domains shown)
VH: QSLEESGGRLVTPGTPLTLTCTASGFSLNDYYITWVRQAPGKGLEWIGVIYGSSNTVYASWAKGRFTISKTSTMVDLRITSPTTEDTATYFCARGYLASSADIWGPGTLVTVSL
VL: QVLTQTPSPVSAAVGGTVTINCQSSQSVYNNNRLAWYQQKPGQPPKLLIYDASTLASGVPSRFKGSGSGTDFTLTISDLECADAATYYCQTYYSGYIWAFGGGTEVVVK

Assays:
[1] = target: BTN3A protein on SKOV-3 cells; assay: cell-based or functional assay
[2] = target: human BTN3A1 expressed on HEK293 cells (human) (UniProt O00481); assay: flow cytometry, HEK293 cells transiently expressing human BTN3A1, B cell supernatant
[3] = target: human BTN3A1 recombinant protein with his tag (h-BTN3A1-his) (human) (UniProt O00481); assay: ELISA, plate coated with h-BTN3A1-his 1 ug/mL, B cell supernatant
Chain of human BTN3A1 recombinant protein with his tag (h-BTN3A1-his) (human) (O00481 30-254 limits assumed): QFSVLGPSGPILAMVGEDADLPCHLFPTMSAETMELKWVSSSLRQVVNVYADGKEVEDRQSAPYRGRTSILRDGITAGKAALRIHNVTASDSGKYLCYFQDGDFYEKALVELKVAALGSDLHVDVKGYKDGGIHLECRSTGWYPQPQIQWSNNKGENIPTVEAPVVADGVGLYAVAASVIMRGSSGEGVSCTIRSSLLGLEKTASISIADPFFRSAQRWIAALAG

Chain of human BTN3A1 expressed on HEK293 cells (human) (O00481 30-513): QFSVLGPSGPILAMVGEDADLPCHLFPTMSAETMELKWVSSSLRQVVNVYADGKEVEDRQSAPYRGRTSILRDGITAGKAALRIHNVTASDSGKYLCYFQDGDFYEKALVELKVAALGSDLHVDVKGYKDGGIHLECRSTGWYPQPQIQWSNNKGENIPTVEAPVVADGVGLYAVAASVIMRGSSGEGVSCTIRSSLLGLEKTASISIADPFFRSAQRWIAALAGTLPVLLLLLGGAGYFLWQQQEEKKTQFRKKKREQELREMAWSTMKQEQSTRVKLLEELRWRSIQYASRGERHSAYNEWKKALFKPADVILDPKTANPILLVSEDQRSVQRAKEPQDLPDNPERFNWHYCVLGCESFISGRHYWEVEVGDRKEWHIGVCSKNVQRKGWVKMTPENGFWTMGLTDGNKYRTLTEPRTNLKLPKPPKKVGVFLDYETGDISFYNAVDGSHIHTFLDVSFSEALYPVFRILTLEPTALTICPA

| Binder | EC50 of IFNγ secretion by Vγ9Vδ2 T cells co-cultured with SKOV-3 cells [1] | Maximum IFNγ (pg/mL), Vγ9Vδ2 T cells co-cultured with SKOV-3 cells [1] | MFI [2] | Percentage (%) [2] | ELISA (OD 450) [3] |
| --- | --- | --- | --- | --- | --- |
| B1 | 0.284 nM | 2470 pg/mL |  |  |  |
| B2 |  |  | 190000 MFI | 98.3% | 2.1 OD450 |
| B3 |  |  | 444000 MFI | 99% | 1.84 OD450 |

From patent publication EP4755916A1
